Source: patent publication US20190336574A1 (TRUSTEES OF PRINCETON UNIVERSITY, published 2019)

Legend:
[1] = biological target: T1, HA-SND1 Δ39-43, full-length human (human, UniProt Q7KZF4 1-910); experiment: co-IP (anti-Myc) from HEK293T lysates, western blot
T1 construct: also called 439-43
T1 sequence: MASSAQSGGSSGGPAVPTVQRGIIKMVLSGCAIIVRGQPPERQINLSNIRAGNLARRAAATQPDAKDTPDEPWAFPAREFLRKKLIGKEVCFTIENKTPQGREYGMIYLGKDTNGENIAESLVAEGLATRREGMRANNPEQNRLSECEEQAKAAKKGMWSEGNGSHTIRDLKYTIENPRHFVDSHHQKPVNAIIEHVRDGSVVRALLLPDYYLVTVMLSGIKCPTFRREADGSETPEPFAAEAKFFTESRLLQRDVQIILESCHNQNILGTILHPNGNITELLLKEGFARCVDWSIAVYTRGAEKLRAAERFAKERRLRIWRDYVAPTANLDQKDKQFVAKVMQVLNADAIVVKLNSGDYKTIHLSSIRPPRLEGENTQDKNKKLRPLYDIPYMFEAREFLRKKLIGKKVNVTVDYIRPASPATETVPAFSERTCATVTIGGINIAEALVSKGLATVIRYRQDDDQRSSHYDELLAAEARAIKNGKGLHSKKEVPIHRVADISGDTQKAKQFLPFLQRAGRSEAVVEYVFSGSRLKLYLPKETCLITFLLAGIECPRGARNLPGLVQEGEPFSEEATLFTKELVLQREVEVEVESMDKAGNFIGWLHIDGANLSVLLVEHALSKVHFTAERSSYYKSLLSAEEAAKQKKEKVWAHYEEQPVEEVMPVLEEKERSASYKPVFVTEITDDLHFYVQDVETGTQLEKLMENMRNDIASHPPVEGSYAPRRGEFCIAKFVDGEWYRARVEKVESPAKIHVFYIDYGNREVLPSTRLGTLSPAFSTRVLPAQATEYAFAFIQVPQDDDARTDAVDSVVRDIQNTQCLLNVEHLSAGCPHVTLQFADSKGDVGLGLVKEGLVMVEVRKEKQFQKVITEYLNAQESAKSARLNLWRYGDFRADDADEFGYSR

[2] = biological target: T2, HA-SND1 R255E, full-length human (human, UniProt Q7KZF4 1-910); experiment: as above
T2 construct: Full-length, HA-tagged
T2 sequence: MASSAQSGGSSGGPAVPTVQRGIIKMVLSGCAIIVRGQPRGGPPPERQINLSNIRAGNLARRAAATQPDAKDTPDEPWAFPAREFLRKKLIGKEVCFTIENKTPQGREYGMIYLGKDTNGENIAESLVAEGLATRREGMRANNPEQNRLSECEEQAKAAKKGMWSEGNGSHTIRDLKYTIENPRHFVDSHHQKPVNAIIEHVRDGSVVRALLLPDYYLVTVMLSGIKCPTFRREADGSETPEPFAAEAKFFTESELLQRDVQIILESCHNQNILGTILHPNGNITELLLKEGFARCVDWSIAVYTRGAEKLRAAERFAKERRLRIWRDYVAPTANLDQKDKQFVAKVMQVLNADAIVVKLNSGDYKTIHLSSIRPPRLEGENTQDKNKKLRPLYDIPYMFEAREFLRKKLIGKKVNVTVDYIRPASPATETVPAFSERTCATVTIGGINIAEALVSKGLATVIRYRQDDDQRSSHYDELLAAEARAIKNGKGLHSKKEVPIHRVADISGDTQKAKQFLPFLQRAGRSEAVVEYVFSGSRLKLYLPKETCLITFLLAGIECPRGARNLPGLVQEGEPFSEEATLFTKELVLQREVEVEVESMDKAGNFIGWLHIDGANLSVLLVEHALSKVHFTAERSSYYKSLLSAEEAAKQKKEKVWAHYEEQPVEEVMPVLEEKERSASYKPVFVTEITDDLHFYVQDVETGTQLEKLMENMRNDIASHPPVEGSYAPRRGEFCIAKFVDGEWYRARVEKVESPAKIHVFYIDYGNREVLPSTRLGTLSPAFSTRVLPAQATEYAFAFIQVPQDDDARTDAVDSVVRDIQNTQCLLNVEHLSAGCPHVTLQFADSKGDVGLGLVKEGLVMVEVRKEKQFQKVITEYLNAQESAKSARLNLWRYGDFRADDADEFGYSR

B1: Myc-MTDH, full-length human, wild type (other)
chain: MAARSWQDELAQQAEEGSARLREMLSVGLGFLRTELGLDLGLEPKRYPGWVILVGTGALGLLLLFLLGYGWAAACAGSRKKRRSPPRKREEAAAVPAAAPDDLALLKNLRSEEQKKKNRKKLSEKPKPNGRTVEVAEGEAVRTPQSVTAKQPPEIDKKNEKSKKNKKKSKSDAKAVQNSSRHDGKEVDEGAWETKISHREKRQQRKRDKVLTDSGSLDSTIPGIENTITVTTEQLTTASFPVGSKKNKGDSHLNVQVSNFKSGKGDSTLQVSSGLNENLTVNGGGWNEKSVKLSSQISAGEEKWNSVSPASAGKRKAEPSAWSQDTGDANTNGKDWGRSWSDRSIFSGIGSTAEPVSQSTTSDYQWDVSRNQPYIDDEWSGLNGLSSADPNSDWNAPAEEWGNWVDEERASLLKSQEPIPDDQKVSDDDKEKGEGALPTGKSKKKKKKKKKQGEDNSTAQDTEELEKEIREDLPVNTSKTRPKQEKAFSLKTISTSDPAEVLVKNSQPIKTLPPATSTEPSVILSKSDSDKSSSQVPPILQETDKSKSNTKQNSVPPSQTKSETSWESPKQIKKKKKARRET
notes: Full-length, Myc-tagged; Expressed in HEK293T cells, tested in lysate; also called Myc-tagged MTDH; WT Myc-MTDH
binding result [1]: no binding
binding result [2]: no binding
